The record followed here is patent US4348387A, “Method and system for the controlled release of biologically active substances to a body fluid” (The Rockefeller University, priority 1979, dated 1982).

Several values for one entry are separate records, joined by “and”; a condition that tells them apart may be missing. Equal entries are not always repeated.

Assay [1] deals with blood glucose. As to the kind of experiment: blood-glucose depression assay modified from the U.S. Pharmacopeia. The conditions noted are these: individual animals A-F; overnight fast; 0.1mg protein/100gm body weight subcutaneous; 60 minutes after injection; each animal its own control.
Description: The conjugate prepared in I was tested using the blood-glucose depression assay modified from the U.S. Pharmoacopeia (Vol. XVIII, 883-884 (1967)).
*After an overnight fast, each animal received 0.1mg protein/100gm body
weight by subcutaneous injection. Each of the animals served as its own
control, receiving the maltoseinsulin derivative on day 1, and control
insulin on day 2. Blood glucose depression was determined 60 minutes afte
injection using a Beckman Glucose Analyzer 2.
For assay [2], the target named is Concanavalin A (Canavalia ensiformis, UniProt P02866). The assay is described as follows: binding to and glucose elution from columns of immobilized Concanavalin A. On the set-up: species or system Jack Bean. As for the experimental part: At the point indicated by the arrow, 0.2 M glucose in the column buffer was begun. Fractions (2.0 ml) were collected at a flow rate of 10-15 ml/h.
Displacement of hormone was accomplished using 1.0 ml pulses of column buffer containing varying amounts of glucose. Glucose content is indicated over the appropriate arrows. Fractions (1.7 ml) were collected at a flow rate of 10-15 ml/h.

Regarding insulin [Control insulin], in assay [1], the “BLOOD GLUCOSE DEPRESSION” value was 75 mg % and 70 mg % and 79 mg % and 64 mg % and 73 mg %. Moreover, the “binding to immobilized Concanavalin A” value in assay [2] (20 mg applied to column, buffer wash, 25 mM sodium phosphate pH 7.4) is given as “did not bind to Concanavalin A”. Also, the “elution from Concanavalin A by glucose” value in assay [2] (0.2 M glucose in column buffer, 1,000:1 molar excess of glucose) is “none was eluted by the addition of glucose”.
